Data: patent US9284543B2, “Neutral active soluble truncated PH20 polypeptides and uses thereof” (Halozyme, Inc., priority 2008, dated 2016)

Columns and labels:
CHO-S cells = assay: Western blot analysis of PH20 expression in media and cells after transient expression; type: cell-based, Chinese Hamster; settings: media versus cells
Procedure, shortened: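 CHO-S cells were transiently transfected with mutant PH20-HZ24 plasmids using GeneJuice and expressed for 48-72 h at 37 °C, 5% CO2. Media and cells were harvested separately, with PI-PLC treatment used to release GPI-anchored protein. Non-reduced samples were blotted with rabbit anti-PH20 (0.5 μg/mL), and a band near 66 kDa was scored as PH20.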

[1] = Microtiter hyaluronidase activity assay with biotinylated-hyaluronic acid; type: biochemical; settings: Table 6, 72 hour post transfection supernatant

B1: SPAM1-VDVC: C-terminally truncated human PH20, precursor 458 aa (SEQ ID NO:39), mature 423 aa (SEQ ID NO:91) (protein, listed as Homo sapiens)
chain 1: MGVLKFKHIFFRSFVKSSGVSQIVFTFLLIPCCLTLNFRAPPVIPNVPFLWAWNAPSEFCLGKFDEPLDMSLFSFIGSPRINATGQGVTIFYVDRLGYYPYIDSITGVTVNGGIPQKISLQDHLDKAKKDITFYMPVDNLGMAVIDWEEWRPTWARNWKPKDVYKNRSIELVQQQNVQLSLTEATEKAKQEFEKAGKDFLVETIKLGKLLRPNHLWGYYLFPDCYNHHYKKPGYNGSCFNVEIKRNDDLSWLWNESTALYPSIYLNTQQSPVAATLYVRNRVREAIRVSKIPDAKSPLPVFAYTRIVFTDQVLKFLSQDELVYTFGETVALGASGIVIWGTLSIMRSMKSCLLLDNYMETILNPYIINVTLAAKMCSQVLCQEQGVCIRKNWNSSDYLHLNPDNFAIQLEKGGKFTVRGKPTLEDLEQFSEKFYCSCYSTLSCKEKADVKDTDAVDVC
chain 2: LNFRAPPVIPNVPFLWAWNAPSEFCLGKFDEPLDMSLFSFIGSPRINATGQGVTIFYVDRLGYYPYIDSITGVTVNGGIPQKISLQDHLDKAKKDITFYMPVDNLGMAVIDWEEWRPTWARNWKPKDVYKNRSIELVQQQNVQLSLTEATEKAKQEFEKAGKDFLVETIKLGKLLRPNHLWGYYLFPDCYNHHYKKPGYNGSCFNVEIKRNDDLSWLWNESTALYPSIYLNTQQSPVAATLYVRNRVREAIRVSKIPDAKSPLPVFAYTRIVFTDQVLKFLSQDELVYTFGETVALGASGIVIWGTLSIMRSMKSCLLLDNYMETILNPYIINVTLAAKMCSQVLCQEQGVCIRKNWNSSDYLHLNPDNFAIQLEKGGKFTVRGKPTLEDLEQFSEKFYCSCYSTLSCKEKADVKDTDAVDVC
modifications: HuPH20 precursor 1-458; Mature HuPH20 36-458
**Q.** Which “Expressed in Media” value (CHO-S cells) does the source give for B1 here?
**A.** YES

**Q.** What about the “pH 5.5 Activity” value [1] of the same molecule?
**A.** 0.0585 Units/ml

**Q.** What about the “pH 7.4 Activity” value [1] of the same molecule?
**A.** 0.0495 Units/ml

B2: SPAM1-VCIA: C-terminally truncated human PH20, precursor 460 aa (SEQ ID NO:38), mature 425 aa (SEQ ID NO:90) (protein, listed as Homo sapiens)
chain 1: MGVLKFKHIFFRSFVKSSGVSQIVFTFLLIPCCLTLNFRAPPVIPNVPFLWAWNAPSEFCLGKFDEPLDMSLFSFIGSPRINATGQGVTIFYVDRLGYYPYIDSITGVTVNGGIPQKISLQDHLDKAKKDITFYMPVDNLGMAVIDWEEWRPTWARNWKPKDVYKNRSIELVQQQNVQLSLTEATEKAKQEFEKAGKDFLVETIKLGKLLRPNHLWGYYLFPDCYNHHYKKPGYNGSCFNVEIKRNDDLSWLWNESTALYPSIYLNTQQSPVAATLYVRNRVREAIRVSKIPDAKSPLPVFAYTRIVFTDQVLKFLSQDELVYTFGETVALGASGIVIWGTLSIMRSMKSCLLLDNYMETILNPYIINVTLAAKMCSQVLCQEQGVCIRKNWNSSDYLHLNPDNFAIQLEKGGKFTVRGKPTLEDLEQFSEKFYCSCYSTLSCKEKADVKDTDAVDVCIA
chain 2: LNFRAPPVIPNVPFLWAWNAPSEFCLGKFDEPLDMSLFSFIGSPRINATGQGVTIFYVDRLGYYPYIDSITGVTVNGGIPQKISLQDHLDKAKKDITFYMPVDNLGMAVIDWEEWRPTWARNWKPKDVYKNRSIELVQQQNVQLSLTEATEKAKQEFEKAGKDFLVETIKLGKLLRPNHLWGYYLFPDCYNHHYKKPGYNGSCFNVEIKRNDDLSWLWNESTALYPSIYLNTQQSPVAATLYVRNRVREAIRVSKIPDAKSPLPVFAYTRIVFTDQVLKFLSQDELVYTFGETVALGASGIVIWGTLSIMRSMKSCLLLDNYMETILNPYIINVTLAAKMCSQVLCQEQGVCIRKNWNSSDYLHLNPDNFAIQLEKGGKFTVRGKPTLEDLEQFSEKFYCSCYSTLSCKEKADVKDTDAVDVCIA
modifications: HuPH20 precursor 1-460; Mature HuPH20 36-460
**Q.** Which results are given for B2?
**A.** Expressed in Media (CHO-S cells): YES; pH 5.5 Activity [1]: 0.0135 Units/ml; pH 7.4 Activity [1]: 0 Units/ml

B3: SPAM1-DTDA: C-terminally truncated human PH20, precursor 454 aa (SEQ ID NO:41), mature 419 aa (SEQ ID NO:93) (protein, listed as Homo sapiens)
chain 1: MGVLKFKHIFFRSFVKSSGVSQIVFTFLLIPCCLTLNFRAPPVIPNVPFLWAWNAPSEFCLGKFDEPLDMSLFSFIGSPRINATGQGVTIFYVDRLGYYPYIDSITGVTVNGGIPQKISLQDHLDKAKKDITFYMPVDNLGMAVIDWEEWRPTWARNWKPKDVYKNRSIELVQQQNVQLSLTEATEKAKQEFEKAGKDFLVETIKLGKLLRPNHLWGYYLFPDCYNHHYKKPGYNGSCFNVEIKRNDDLSWLWNESTALYPSIYLNTQQSPVAATLYVRNRVREAIRVSKIPDAKSPLPVFAYTRIVFTDQVLKFLSQDELVYTFGETVALGASGIVIWGTLSIMRSMKSCLLLDNYMETILNPYIINVTLAAKMCSQVLCQEQGVCIRKNWNSSDYLHLNPDNFAIQLEKGGKFTVRGKPTLEDLEQFSEKFYCSCYSTLSCKEKADVKDTDA
chain 2: LNFRAPPVIPNVPFLWAWNAPSEFCLGKFDEPLDMSLFSFIGSPRINATGQGVTIFYVDRLGYYPYIDSITGVTVNGGIPQKISLQDHLDKAKKDITFYMPVDNLGMAVIDWEEWRPTWARNWKPKDVYKNRSIELVQQQNVQLSLTEATEKAKQEFEKAGKDFLVETIKLGKLLRPNHLWGYYLFPDCYNHHYKKPGYNGSCFNVEIKRNDDLSWLWNESTALYPSIYLNTQQSPVAATLYVRNRVREAIRVSKIPDAKSPLPVFAYTRIVFTDQVLKFLSQDELVYTFGETVALGASGIVIWGTLSIMRSMKSCLLLDNYMETILNPYIINVTLAAKMCSQVLCQEQGVCIRKNWNSSDYLHLNPDNFAIQLEKGGKFTVRGKPTLEDLEQFSEKFYCSCYSTLSCKEKADVKDTDA
modifications: HuPH20 precursor 1-454; Mature HuPH20 36-454
**Q.** Which “Expressed in Media” value (CHO-S cells) does the source give for B3 here?
**A.** YES

**Q.** What about the “pH 5.5 Activity” value [1] of the same molecule?
**A.** 0.054 Units/ml

**Q.** What about the “pH 7.4 Activity” value [1] of the same molecule?
**A.** 0 Units/ml

B4: SPAM1-IADG: C-terminally truncated human PH20, precursor 462 aa (SEQ ID NO:37), mature 427 aa (SEQ ID NO:89) (protein, listed as Homo sapiens)
chain 1: MGVLKFKHIFFRSFVKSSGVSQIVFTFLLIPCCLTLNFRAPPVIPNVPFLWAWNAPSEFCLGKFDEPLDMSLFSFIGSPRINATGQGVTIFYVDRLGYYPYIDSITGVTVNGGIPQKISLQDHLDKAKKDITFYMPVDNLGMAVIDWEEWRPTWARNWKPKDVYKNRSIELVQQQNVQLSLTEATEKAKQEFEKAGKDFLVETIKLGKLLRPNHLWGYYLFPDCYNHHYKKPGYNGSCFNVEIKRNDDLSWLWNESTALYPSIYLNTQQSPVAATLYVRNRVREAIRVSKIPDAKSPLPVFAYTRIVFTDQVLKFLSQDELVYTFGETVALGASGIVIWGTLSIMRSMKSCLLLDNYMETILNPYIINVTLAAKMCSQVLCQEQGVCIRKNWNSSDYLHLNPDNFAIQLEKGGKFTVRGKPTLEDLEQFSEKFYCSCYSTLSCKEKADVKDTDAVDVCIADG
chain 2: LNFRAPPVIPNVPFLWAWNAPSEFCLGKFDEPLDMSLFSFIGSPRINATGQGVTIFYVDRLGYYPYIDSITGVTVNGGIPQKISLQDHLDKAKKDITFYMPVDNLGMAVIDWEEWRPTWARNWKPKDVYKNRSIELVQQQNVQLSLTEATEKAKQEFEKAGKDFLVETIKLGKLLRPNHLWGYYLFPDCYNHHYKKPGYNGSCFNVEIKRNDDLSWLWNESTALYPSIYLNTQQSPVAATLYVRNRVREAIRVSKIPDAKSPLPVFAYTRIVFTDQVLKFLSQDELVYTFGETVALGASGIVIWGTLSIMRSMKSCLLLDNYMETILNPYIINVTLAAKMCSQVLCQEQGVCIRKNWNSSDYLHLNPDNFAIQLEKGGKFTVRGKPTLEDLEQFSEKFYCSCYSTLSCKEKADVKDTDAVDVCIADG
modifications: HuPH20 precursor 1-462; Mature HuPH20 36-462
**Q.** Which “Expressed in Media” value (CHO-S cells) does the source give for B4 here?
**A.** YES

**Q.** And the “pH 5.5 Activity” value [1]?
**A.** 0.00225 Units/ml

**Q.** And the “pH 7.4 Activity” value [1]?
**A.** 0 Units/ml

B5: SPAM1-DAVD: C-terminally truncated human PH20, precursor 456 aa (SEQ ID NO:40), mature 421 aa (SEQ ID NO:92) (protein, listed as Homo sapiens)
chain 1: MGVLKFKHIFFRSFVKSSGVSQIVFTFLLIPCCLTLNFRAPPVIPNVPFLWAWNAPSEFCLGKFDEPLDMSLFSFIGSPRINATGQGVTIFYVDRLGYYPYIDSITGVTVNGGIPQKISLQDHLDKAKKDITFYMPVDNLGMAVIDWEEWRPTWARNWKPKDVYKNRSIELVQQQNVQLSLTEATEKAKQEFEKAGKDFLVETIKLGKLLRPNHLWGYYLFPDCYNHHYKKPGYNGSCFNVEIKRNDDLSWLWNESTALYPSIYLNTQQSPVAATLYVRNRVREAIRVSKIPDAKSPLPVFAYTRIVFTDQVLKFLSQDELVYTFGETVALGASGIVIWGTLSIMRSMKSCLLLDNYMETILNPYIINVTLAAKMCSQVLCQEQGVCIRKNWNSSDYLHLNPDNFAIQLEKGGKFTVRGKPTLEDLEQFSEKFYCSCYSTLSCKEKADVKDTDAVD
chain 2: LNFRAPPVIPNVPFLWAWNAPSEFCLGKFDEPLDMSLFSFIGSPRINATGQGVTIFYVDRLGYYPYIDSITGVTVNGGIPQKISLQDHLDKAKKDITFYMPVDNLGMAVIDWEEWRPTWARNWKPKDVYKNRSIELVQQQNVQLSLTEATEKAKQEFEKAGKDFLVETIKLGKLLRPNHLWGYYLFPDCYNHHYKKPGYNGSCFNVEIKRNDDLSWLWNESTALYPSIYLNTQQSPVAATLYVRNRVREAIRVSKIPDAKSPLPVFAYTRIVFTDQVLKFLSQDELVYTFGETVALGASGIVIWGTLSIMRSMKSCLLLDNYMETILNPYIINVTLAAKMCSQVLCQEQGVCIRKNWNSSDYLHLNPDNFAIQLEKGGKFTVRGKPTLEDLEQFSEKFYCSCYSTLSCKEKADVKDTDAVD
modifications: HuPH20 precursor 1-456; Mature HuPH20 36-456
**Q.** For B5, which “Expressed in Media” value (CHO-S cells) is on record?
**A.** YES

**Q.** What about the “pH 5.5 Activity” value [1] of the same molecule?
**A.** 0.0675 Units/ml

**Q.** And the “pH 7.4 Activity” value [1]?
**A.** 0 Units/ml
